{"source": "patent US20140315986", "about": "“APTAMERS THAT BIND TO IL-6 AND THEIR USE IN TREATING OR DIAGNOSING IL-6 MEDIATED CONDITIONS” (Otsuka Pharmaceutical Co., Ltd., published 2014)", "binders": {"B1": {"name": "2574-49_338 (ssDNA)", "DNA": "GGGUUAUGUAGCGUGCGUAAGGCGGU", "modifications": "G-G1-G-Nap1-Nap2-A-Nap-G-Nap1-A-G-C-C3-C3-G1-U1-G1-C-G-Nap1-A-A-G-G-C-G1-G1-Nap1 (1=2'-OMe, 2=PS)"}, "B2": {"name": "2573-20_780 (ssDNA)", "DNA": "GGCAGGUUUGGUAUUAACACGUUAAGUCGUGG", "modifications": "G-G-C1-A-G-G1-Bn-Bn-Pe2-G-G-Nap-A-Bn-Bn-A1-A-C-A1-C1-G-Bn-Bn2-A-A-G-Bn-C1-G-Bn2-G-G (1=2'-OMe, 2=PS)"}, "B3": {"name": "2574-49_411 (ssDNA)", "DNA": "GGGUUAUGUAGCGUGCGUAAGGCGGU", "modifications": "G-G1-G-Nap1-Nap2-A2-Nap2-G-Nap1-A2-G1-C1-C3-C3-G1-U1-G1-C2-G2-Nap1-A2-A2-G2-G1-C2-G1-G1-Nap1 (1=2'-OMe, 2=PS)"}, "B4": {"name": "2574-49_326 (ssDNA)", "DNA": "GGGUUAUGUAGCGUGCGUAAGGCGGU", "modifications": "G-G1-G-Nap1-Nap-A-Nap-G-Nap1-A-G-C-C3-C3-G-U1-G1-C-G-Nap1-A-A-G-G-C-G1-G1-Nap1 (1=2'-OMe)"}}, "biological_target": "IL-6 (mature human interleukin-6) (Homo sapiens, UniProt P05231 SEQ:1-184)", "sequence (P05231 29-212)": "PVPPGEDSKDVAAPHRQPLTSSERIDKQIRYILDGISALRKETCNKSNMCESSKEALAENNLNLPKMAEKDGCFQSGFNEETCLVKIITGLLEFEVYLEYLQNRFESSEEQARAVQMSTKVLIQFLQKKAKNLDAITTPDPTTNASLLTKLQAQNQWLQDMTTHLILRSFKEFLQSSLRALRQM", "assay": "cell_activity", "conditions": "tags: untagged, R&D Systems; biotinylated with NHS-PEO4-biotin for SELEX"}
{"binder": "B1", "values": [{"measurement": "IC50", "result": 0.02, "unit": "nM"}]}
{"binder": "B2", "values": [{"measurement": "IC50", "result": 0.087, "unit": "nM"}]}
{"binder": "B3", "values": [{"measurement": "IC50", "result": 5.8, "unit": "nM"}]}
{"binder": "B4", "values": [{"measurement": "IC50", "result": 0.11, "unit": "nM"}]}
